Test [1] concerns the target cohesin tetramer (Smc1, Smc3, Scc1, Scc3) (S. cerevisiae) (UniProt P32908).
Test [2] addresses T1, cohesin tetramer (Smc1, Smc3, Scc1, Scc3) (S. cerevisiae, UniProt P32908 1-1225; P47037 1-1230; Q12158 1-566; P40541 1-1150).
T1 construct: Smc1, S. cerevisiae, synthetic codon-optimised gene; Smc3, S. cerevisiae, synthetic codon-optimised gene; Scc1 (kleisin; Mcd1), S. cerevisiae, synthetic codon-optimised gene; Scc3, S. cerevisiae, synthetic codon-optimised gene; also called wild-type tetramers; source: Sf9, co-expressed (baculovirus), purified (StrepTrap, gel filtration); not shown: 2xStrepII, C-terminal, …
Briefly: co-IP; GFP-Scc2 held by anti-GFP antibody on Protein G Dynabeads; tetramers and GFP-Scc2 in an ATPase reaction, 25°C, 45 min, then beads 45 min at room temperature; washes with 100 mM NaCl; Coomassie-stained SDS-PAGE. The following applies: both partners purified.

Test [3] addresses T2, cohesin tetramer with scc1Δ152–256 (Smc1, Smc3, Scc1Δ152-256, Scc3) (S. cerevisiae, UniProt P32908 1-1225; P47037 1-1230; Q12158 1-566; P40541 1-1150, Δ152-256).
T2 construct: Smc1, S. cerevisiae, synthetic codon-optimised gene; Smc3, S. cerevisiae, synthetic codon-optimised gene; Scc1 (kleisin; Mcd1), S. cerevisiae, synthetic codon-optimised gene; Scc3, S. cerevisiae, synthetic codon-optimised gene; source: Sf9, co-expressed (baculovirus), purified (StrepTrap, gel filtration); not shown: 2xStrepII, C-terminal, kept; copies: + + +
The description is as above. The following applies: both partners purified.

T1 sequence (P32908 whole entry, chain 1 of 4): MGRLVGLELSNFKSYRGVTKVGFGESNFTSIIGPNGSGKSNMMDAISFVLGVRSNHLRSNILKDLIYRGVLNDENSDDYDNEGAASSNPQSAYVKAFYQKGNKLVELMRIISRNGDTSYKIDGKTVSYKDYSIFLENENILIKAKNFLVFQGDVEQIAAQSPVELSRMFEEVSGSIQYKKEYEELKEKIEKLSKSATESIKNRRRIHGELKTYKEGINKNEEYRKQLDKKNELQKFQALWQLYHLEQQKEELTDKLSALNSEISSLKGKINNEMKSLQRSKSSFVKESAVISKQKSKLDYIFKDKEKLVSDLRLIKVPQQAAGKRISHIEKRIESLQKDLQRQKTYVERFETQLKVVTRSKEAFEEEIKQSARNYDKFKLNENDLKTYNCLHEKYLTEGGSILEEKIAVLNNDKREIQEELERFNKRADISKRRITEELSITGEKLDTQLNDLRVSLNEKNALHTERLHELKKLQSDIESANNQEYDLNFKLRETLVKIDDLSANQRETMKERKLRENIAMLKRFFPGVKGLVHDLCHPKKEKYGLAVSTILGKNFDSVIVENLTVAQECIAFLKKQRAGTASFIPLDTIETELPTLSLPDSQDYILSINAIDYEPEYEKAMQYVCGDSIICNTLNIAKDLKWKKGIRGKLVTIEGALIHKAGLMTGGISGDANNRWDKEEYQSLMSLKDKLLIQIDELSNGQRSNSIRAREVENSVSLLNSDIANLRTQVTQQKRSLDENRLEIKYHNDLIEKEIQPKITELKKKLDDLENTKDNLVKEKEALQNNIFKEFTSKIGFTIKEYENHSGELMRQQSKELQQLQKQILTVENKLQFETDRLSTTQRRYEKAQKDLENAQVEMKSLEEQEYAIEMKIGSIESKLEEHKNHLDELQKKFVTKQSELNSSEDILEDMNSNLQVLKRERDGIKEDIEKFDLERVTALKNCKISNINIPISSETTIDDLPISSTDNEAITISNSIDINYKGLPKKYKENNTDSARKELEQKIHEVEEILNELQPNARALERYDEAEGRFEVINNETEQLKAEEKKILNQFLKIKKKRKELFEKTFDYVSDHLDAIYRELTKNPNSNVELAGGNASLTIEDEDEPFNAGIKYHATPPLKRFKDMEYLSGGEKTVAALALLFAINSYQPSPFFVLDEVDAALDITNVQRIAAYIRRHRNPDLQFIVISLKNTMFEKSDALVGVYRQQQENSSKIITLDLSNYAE
T1 sequence (P47037 whole entry, chain 2 of 4): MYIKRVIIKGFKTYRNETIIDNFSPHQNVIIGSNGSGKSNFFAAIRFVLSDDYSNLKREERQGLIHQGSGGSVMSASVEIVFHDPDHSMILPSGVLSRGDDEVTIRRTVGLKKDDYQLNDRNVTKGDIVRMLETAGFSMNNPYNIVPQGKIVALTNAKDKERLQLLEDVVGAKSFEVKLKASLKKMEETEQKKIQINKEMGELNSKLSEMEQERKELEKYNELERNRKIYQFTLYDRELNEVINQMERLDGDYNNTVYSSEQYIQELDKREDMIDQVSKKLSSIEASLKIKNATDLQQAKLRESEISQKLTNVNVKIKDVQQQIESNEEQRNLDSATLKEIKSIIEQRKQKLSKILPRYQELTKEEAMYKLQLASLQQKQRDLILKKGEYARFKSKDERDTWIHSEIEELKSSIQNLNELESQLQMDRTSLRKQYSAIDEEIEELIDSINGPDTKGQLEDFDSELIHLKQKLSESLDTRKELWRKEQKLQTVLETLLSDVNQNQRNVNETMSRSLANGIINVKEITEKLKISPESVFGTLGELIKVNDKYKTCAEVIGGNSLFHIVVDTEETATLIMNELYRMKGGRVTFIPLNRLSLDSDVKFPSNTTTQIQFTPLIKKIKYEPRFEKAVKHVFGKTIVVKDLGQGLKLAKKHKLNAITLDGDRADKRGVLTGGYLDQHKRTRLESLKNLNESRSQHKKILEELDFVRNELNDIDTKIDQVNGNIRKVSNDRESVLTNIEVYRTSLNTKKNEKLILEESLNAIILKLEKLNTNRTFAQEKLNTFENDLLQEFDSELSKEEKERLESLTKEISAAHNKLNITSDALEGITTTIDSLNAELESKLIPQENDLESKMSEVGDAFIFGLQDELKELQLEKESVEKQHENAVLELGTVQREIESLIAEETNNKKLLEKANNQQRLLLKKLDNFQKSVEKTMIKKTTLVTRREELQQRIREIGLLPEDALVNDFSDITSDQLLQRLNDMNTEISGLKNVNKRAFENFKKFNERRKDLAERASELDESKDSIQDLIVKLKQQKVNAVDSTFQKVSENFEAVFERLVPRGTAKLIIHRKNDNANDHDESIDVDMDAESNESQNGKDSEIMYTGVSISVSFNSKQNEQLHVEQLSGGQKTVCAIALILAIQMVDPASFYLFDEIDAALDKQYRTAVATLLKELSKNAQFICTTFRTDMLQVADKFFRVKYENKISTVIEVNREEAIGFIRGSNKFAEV
T1 sequence (Q12158 whole entry, chain 3 of 4): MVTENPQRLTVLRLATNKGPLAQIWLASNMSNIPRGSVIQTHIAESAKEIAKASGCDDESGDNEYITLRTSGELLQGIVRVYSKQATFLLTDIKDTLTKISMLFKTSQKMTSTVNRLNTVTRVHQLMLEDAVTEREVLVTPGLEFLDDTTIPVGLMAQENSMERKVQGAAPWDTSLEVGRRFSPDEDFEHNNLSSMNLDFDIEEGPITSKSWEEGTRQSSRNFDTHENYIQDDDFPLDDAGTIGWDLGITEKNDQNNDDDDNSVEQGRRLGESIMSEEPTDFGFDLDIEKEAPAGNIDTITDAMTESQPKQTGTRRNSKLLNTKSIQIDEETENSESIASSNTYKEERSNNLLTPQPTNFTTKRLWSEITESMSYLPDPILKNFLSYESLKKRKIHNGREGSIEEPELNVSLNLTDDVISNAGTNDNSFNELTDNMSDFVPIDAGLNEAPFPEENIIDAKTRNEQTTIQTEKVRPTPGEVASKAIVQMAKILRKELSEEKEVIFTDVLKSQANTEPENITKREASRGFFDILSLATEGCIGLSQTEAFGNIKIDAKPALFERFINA
T1 sequence (P40541 whole entry, chain 4 of 4): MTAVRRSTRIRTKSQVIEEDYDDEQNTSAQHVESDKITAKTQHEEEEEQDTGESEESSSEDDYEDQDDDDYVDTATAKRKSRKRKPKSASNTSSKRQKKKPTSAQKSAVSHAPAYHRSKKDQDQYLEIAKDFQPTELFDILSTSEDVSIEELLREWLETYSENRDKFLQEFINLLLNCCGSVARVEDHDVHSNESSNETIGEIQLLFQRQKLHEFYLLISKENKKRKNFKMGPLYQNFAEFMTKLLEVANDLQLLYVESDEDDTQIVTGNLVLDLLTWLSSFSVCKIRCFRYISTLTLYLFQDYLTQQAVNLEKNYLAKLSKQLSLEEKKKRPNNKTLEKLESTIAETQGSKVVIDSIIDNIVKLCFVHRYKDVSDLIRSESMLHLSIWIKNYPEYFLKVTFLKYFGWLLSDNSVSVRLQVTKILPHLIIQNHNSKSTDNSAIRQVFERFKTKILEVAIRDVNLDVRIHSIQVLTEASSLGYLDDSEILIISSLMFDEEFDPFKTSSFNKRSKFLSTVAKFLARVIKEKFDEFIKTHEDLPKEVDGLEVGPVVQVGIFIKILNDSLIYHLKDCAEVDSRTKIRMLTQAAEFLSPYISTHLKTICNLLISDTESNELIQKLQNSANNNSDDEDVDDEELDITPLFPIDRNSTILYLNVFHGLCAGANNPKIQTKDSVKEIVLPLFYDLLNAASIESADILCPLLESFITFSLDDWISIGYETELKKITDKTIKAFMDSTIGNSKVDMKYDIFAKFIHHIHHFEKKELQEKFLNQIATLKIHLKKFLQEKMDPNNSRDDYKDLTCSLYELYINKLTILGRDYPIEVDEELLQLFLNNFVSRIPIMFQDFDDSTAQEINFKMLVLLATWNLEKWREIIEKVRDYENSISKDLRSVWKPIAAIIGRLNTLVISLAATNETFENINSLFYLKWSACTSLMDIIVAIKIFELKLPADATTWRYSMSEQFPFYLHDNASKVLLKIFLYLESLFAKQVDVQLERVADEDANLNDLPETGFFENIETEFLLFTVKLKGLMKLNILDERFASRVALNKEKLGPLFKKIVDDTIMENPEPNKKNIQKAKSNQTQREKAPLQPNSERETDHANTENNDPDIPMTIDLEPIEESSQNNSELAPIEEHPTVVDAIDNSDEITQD

B1: His6-Pds5 (natural protein)
chain: MAKGAVTKLKFNSPIISTSDQLISTNELLDRLKALHEELASLDQDNTDLTGLDKYRDALVSRKLLKHKDVGIRAFTACCLSDILRLYAPDAPYTDAQLTDIFKLVLSQFEQLGDQENGYHIQQTYLITKLLEYRSIVLLADLPSSNNLLIELFHIFYDPNKSFPARLFNVIGGILGEVISEFDSVPLEVLRLIFNKFLTYNPNEIPEGLNVTSDCGYEVSLILCDTYSNRMSRHLTKYYSEIIHEATNDDNNSRLLTVVVKLHKLVLRLWETVPELINAVIGFIYHELSSENELFRKEATKLIGQILTSYSDLNFVSTHSDTFKAWISKIADISPDVRVEWTESIPQIIATREDISKELNQALAKTFIDSDPRVRRTSVMIFNKVPVTEIWKNITNKAIYTSLLHLAREKHKEVRELCINTMAKFYSNSLNEIERTYQNKEIWEIIDTIPSTLYNLYYINDLNINEQVDSVIFEYLLPFEPDNDKRVHRLLTVLSHFDKKAFTSFFAFNARQIKISFAISKYIDFSKFLNNQESMSSSQGPIVMNKYNQTLQWLASGLSDSTKAIDALETIKQFNDERIFYLLNACVTNDIPFLTFKNCYNELVSKLQTPGLFKKYNISTGASIMPRDIAKVIQILLFRASPIIYNVSNISVLLNLSNNSDAKQLDLKRRILDDISKVNPTLFKDQIRTLKTIIKDLDDPDAEKNDNLSLEEALKTLYKASKTLKDQVDFDDTFFFTKLYDFAVESKPEITKYATKLIALSPKAEETLKKIKIRILPLDLQKDKYFTSHIIVLMEIFKKFPHVLNDDSTDIISYLIKEVLLSNQVVGDSKKEIDWVEDSLLSDTKYSAIGNKVFTLKLFTNKLRSIAPDVPRDELAESFTEKTMKLFFYLIASGGELISEFNKEFYPTPSNYQTKLRCVAGIQVLKLARISNLNNFIKPSDIIKLINLVEDESLPVRKTFLEQLKDYVANELISIKFLPLVFFTAYEPDVELKTTTKIWINFTFGLKSFKKGTIFERALPRLIHAIAHHPDIVGGLDSEGDAYLNALTTAIDYLLFYFDSIAAQENFSLLYYLSERVKNYQDKLVEDEIDEEEGPQKEEAPKKHRPYGQKMYIIGELSQMILLNLKEKKNWQHSAYPGKLNLPSDLFKPFATVQEAQLSFKTYIPESLTEKIQNNIKAKIGRILHTSQTQRQRLQKRLLAHENNESQKKKKKVHHARSQADDEEGDGDRESDSDDDSYSPSNKNETKKGHENIVMKKLRVRKEVDYKDDEDDDIEMT
The molecule B1 registered a Scc2-stimulated ATPase activity of cohesin tetramers with a three-fold molar excess of Pds5, in the absence of DNA in test [1] of 2 fold.

B2: GFP-ΔN132-Scc2-1xStrepII (domain or fragment, S. cerevisiae, UniProt Q04002 133-1493, looked up)
chain: KSEIVSRPEAKHKLESVTSNAGNLSFNDNSSNKKTKTSTGVTMTQANLAEQYLNDLKNILDIVGFDQNSAEIGNIEYWLQLPNKKFVLTTNCLTKLQMTIKNITDNPQLSNSIEITWLLRLLDVMVCNIKFSKSSLKMGLDDSMLRYIALLSTIVLFNIFLLGKNDSNLHRESYIMEPVNFLSDLIESLKILTIEYGSLKIEFDTFQEALELLPKYIRNGPFLDDNVTAKLVYIFSDLLMNNDIEATTNIQFQSFWDNVKRISSDILVSLFGSFDQQRGFIIEELLSHIEKLPTKRIQKKLRKVGNQNIYITDFTFTLMSMLENINCYSFCNQMKDIAPENIDLLKNEYKKQEEFLFNIVEHINDTILERFFKNPSALRYVIDNFVQDLLLLISSPQWPVTEKILSSLLKRLLSVYSPSMQVSANIETICLQLIGNIGSTIFDIKCSTRDHEDNNLIKMINYPETLPHFFKSFEECIAYNETIKCRRSATRFLWNLRLGTILILEEYTKDAKEQIITVDNELKKILEQIKDGGLGPELENREADFSTIKLDYFSILHAFELLNLYDPYLKLILSLLAKDKIKLRSTAIKCLSMLASKDKVILSNPMVKETIHRRLNDSSASVKDAILDLVSINSSYFEFYQQINNNYNDDSIMVRKHVLRINEKMYDETNDIVTKVYVIARILMKIEDEEDNIIDMARLILLNRWILKVHEVLDQPEKLKEISSSVLLVMSRVAIMNEKCSQLFDLFLNFYLLNKEAHSKEAYDKITHVLTILTDFLVQKIVELNSDDTNEKNSIVDKQNFLNLLAKFADSTVSFLTKDHITALYPYMVSDEKSDFHYYILQVFRCTFEKLANFKQKFLYDLETTLLSRLPKMNVREIDEAMPLIWSVATHRHDTARVAKACSSCLSHLHPYINKANNEEAAIVVDGKLQRLIYLSTGFARFCFPKPSNDKIAFLQEGETLYEHITKCLLVLSKDKITHVIRRVAVKNLTKLCGNHPKLFNSRHVLHLLDKEFQSDQLDIKLVILESLYDLFLLEERKSVRNTGVNSTLSSNSILKKKLLKTNRVEFANDGVCSALATRFLDNILQLCLLRDLKNSLVAIRLLKLILKFGYTNPSHSIPTVIALFASTSQYIRHVAYELLEDLFEKYETLVFSSLSRGVTKAIHYSIHTDEKYYYKHDHFLSLLEKLCGTGKKNGPKFFKVLKRIMQSYLDDITDLTSTNSSVQKSIFVLCTNISNITFVSQYDLVSLLKTIDLTTDRLKEVIMDEIGDNVSSLSVSEEKLSGIILIQLSLQDLGTYLLHLYGLRDDVLLLDIVEESELKNKQLPAKKPDISKFSAQLENIEQYSSNGKLLTYFRKHVKDT
notes: Scc2, S. cerevisiae, synthetic codon-optimised gene; also called GFP-Scc2; Scc2-GFP; source: Sf9, baculovirus, purified (StrepTrap, gel filtration); not shown: GFP, N-terminal, kept; StrepII, C-terminal, kept
As for B2, the binding result in test [2] and in test [3] was “binds” throughout.

For the origin of these results see publication PMC6028919, “Scc2 Is a Potent Activator of Cohesin’s ATPase that Promotes Loading by Binding Scc1 without Pds5” (Molecular Cell, 2018).
